Consider one substance from publication PMC6362186, “Isolation and biochemical characterization of a metagenome-derived 3-deoxy-D-arabino-heptulosonate-7-phosphate synthase gene from subtropical marine mangrove wetland sediments” (AMB Express, 2019).

The data set relates to T1, C=C(OP(=O)(O)O)C(=O)O.
T1 construct: His-tagged from pET-30a(+) HindIII/XhoI, tag removal not mentioned, ~37 kDa on SDS-PAGE; E. coli Rosetta (DE3), Ni resin; tetramer only by homology model
Nature of the data set: purified protein. In kind it is biochemical, uncultured bacterium. The note with it: co-substrate D-erythrose 4-phosphate, optimal conditions pH 8.0, 40 °C, CoCl2 0.1 mM in standard assay, PEP range printed as 0.1–0.5 μM.

One may read the Km as the concentration of substrate that gives half-maximal velocity. For orientation: kcat means the number of substrate molecules converted per active site and unit of time at saturation. Take Aro1A (uncultured bacterium): the Km worked out at 19.58 µM and the kcat was 17.3 s⁻¹.
